According to PMC3908897:
Substitutions are numbered along the chain they refer to. Names and notes keep the numbering of the source.

B1: E. coli OSBS (Escherichia coli K-12; A107N) (protein)
chain: MRSAQVYRWQIPMDAGVVLRDRRLKTRDGLYVCLREGEREGWGEISPLPGFSQETWEEAQSVLLAWVNNWLAGDCELPQMPSVAFGVSCALAELTDTLPQAANYRANPLCNGDPDDLILKLADMPGEKVAKVKVGLYEAVRDGMVVNLLLEAIPDLHLRLDANRAWTPLKGQQFAKYVNPDYRDRIAFLEEPCKTRDDSRAFARETGIAIAWDESLREPDFAFVAEEGVRAVVIKPTLTGSLEKVREQVQAAHALGLTAVISSSIESSLGLTQLARIAAWLTPDTIPGLDTLDLMQAQQVRRWPGSTLPVVEVDALERLL
B2: T. fusca OSBS (Thermobifida fusca YX; N71A) (protein)
chain: MTGRAFAIPLRTRFRGITVREGMLVRGAAGWGEFSPFAEYGPRECARWWAACYEAAELGWPAPVRDTVPVAATVPAVGPEEAARIVASSGCTTAKVKVAERGQSEANDVARVEAVRDALGPRGRVRIDVNGAWDVDTAVRMIRLLDRFELEYVEQPCATVDELAEVRRRVSVPIAADESIRRAEDPLRVRDAEAADVVVLKVQPLGGVRAALRLAEECGLPVVVSSAVETSVGLAAGVALAAALPELPYACGLATLRLLHADVCDDPLLPVHGVLPVRRVDVSEQRLAEVEIDPAAWQARLAAARAAWEQVEREPGP
B3: E. coli OSBS (Escherichia coli K-12; L109T) (protein)
chain: B1 chain with N107A, L109T
B4: T. fusca OSBS (Thermobifida fusca YX; R126M) (protein)
chain: B2 chain with A71N, R126M
B5: T. fusca OSBS (Thermobifida fusca YX; G252A) (protein)
chain: B2 chain with A71N, G252A
B6: T. fusca OSBS (Thermobifida fusca YX; G252T) (protein)
chain: B2 chain with A71N, G252T
B7: T. elongatus OSBS (Thermosynechococcus vestitus BP-1) (protein)
chain: MRWQWRIYEEPLQEPLTTAQGVWRSRSGIYLRLEDEQGQVGYGEIAPLPGWGSETLNADIALCQQLPGHLTPEIMATIPEALPAAQFGFATAWQSVGRLPYRVRPWPICALLGSGQAALEQWQQSWQRGQTTFKWKVGVMSPEEEQAILKALLAALPPGAKLRLDANGSWDRATANRWFAWLDRHGNGKIEYVEQPLPPDQWQALLSLAQTVTTAIALDESVVSAAEVQRWVDRGWPGFFVIKTALFGDPDSLSLLLRRGLEPQRLVFSSALEGAIARTAIFHLLETWQPCHALGFGVDRWRSAPLLTTLTAYERLWERLDQ
B8: T. elongatus OSBS (Thermosynechococcus vestitus BP-1; G295A) (protein)
chain: B7 chain with G295A
B9: T. fusca OSBS (Thermobifida fusca YX) (protein)
chain: B2 chain with A71N
B10: T. fusca OSBS (Thermobifida fusca YX; R15A) (protein)
chain: B2 chain with R15A, A71N
B11: E. coli OSBS (Escherichia coli K-12; R20S) (protein)
chain: B1 chain with R20S, N107A
B12: T. fusca OSBS (Thermobifida fusca YX; F37A) (protein)
chain: B2 chain with F37A, A71N

What was measured:
Experiment in all cases: purified protein
Details in all cases: 50 mM Tris pH 8.0, 0.1 mM MnCl2, 25°C
purified protein [1] = substrate: O=C(O)CCC(=O)C1=CC=C[C@@H](O)[C@@H]1C(=O)O; format: biochemical, Escherichia coli
purified protein [2] = substrate: O=C(O)CCC(=O)C1=CC=C[C@@H](O)[C@@H]1C(=O)O; format: biochemical, Thermobifida fusca
purified protein [3] = substrate: O=C(O)CCC(=O)C1=CC=C[C@@H](O)[C@@H]1C(=O)O; format: biochemical, Thermosynechococcus vestitus

Protein	Km (purified protein [2]) [µM]	kcat (purified protein [2]) [s⁻¹]	kcat/Km (purified protein [2]) [M⁻¹ s⁻¹]	also measured
B1	–	–	–	Km (purified protein [1]): 109 ± 17 µM; kcat (purified protein [1]): 32 ± 1.9 s⁻¹; kcat/Km (purified protein [1]): 290000 M⁻¹ s⁻¹
B2	322 ± 56	10 ± 0.7	31000	–
B3	–	–	–	Km (purified protein [1]): 83 ± 17 µM; kcat (purified protein [1]): 3.6 ± 0.3 s⁻¹; kcat/Km (purified protein [1]): 43000 M⁻¹ s⁻¹
B4	470 ± 42	104 ± 4	220000	–
B5	86 ± 6	16 ± 0.3	190000	–
B6	668 ± 72	13 ± 0.7	19000	–
B7	–	–	–	Km (purified protein [3]): 78 ± 17 µM; kcat (purified protein [3]): 80 ± 4 s⁻¹; kcat/Km (purified protein [3]): 1e+06 M⁻¹ s⁻¹
B8	–	–	–	Km (purified protein [3]): 304 ± 82 µM; kcat (purified protein [3]): 4 ± 0.4 s⁻¹; kcat/Km (purified protein [3]): 13000 M⁻¹ s⁻¹
B9	182 ± 22	122 ± 4.6	670000	–
B10	7 ± 1.4	0.6 ± 0.02	86000	–
B11	–	–	–	Km (purified protein [1]): 22 ± 0.1 µM; kcat (purified protein [1]): 0.5 ± 0.1 s⁻¹; kcat/Km (purified protein [1]): 23000 M⁻¹ s⁻¹
B12	666 ± 151	163 ± 19	250000	–
